Data taken from the Human Domainome abundance scans (Beltran et al. 2025).
± gives the uncertainty stated by the source.

B1: PMS1 protein homolog 1, residues 572 to 637; numbered along this chain, P54277 (parent)
chain: KKPMSASALFVQDHRPQFLIENPKTSLEDATLQIEELWKTLSEEEKLKYEEKATKDLERYNSQMKR

Variants of: B1
Assay: abundance fitness (aPCA) (normalised: wild type 0, dead -1); higher = more abundant; growth selection in yeast, the domain comes from the species named
Conditions: Homo sapiens

Row | Variant | abundance fitness
1 | M64S | -0.049 ± 0.055
2 | M64R | -0.136 ± 0.083
3 | M64Y | 0.035 ± 0.14
4 | M64H | 0.08 ± 0.16
5 | M64I | -0.172 ± 0.12
6 | M64T | -0.142 ± 0.099
7 | K39L | -0.22 ± 0.18
8 | K39Q | 0.017 ± 0.26
9 | K39D | -0.308 ± 0.26
10 | K39Y | -0.104 ± 0.39
11 | K39A | -0.062 ± 0.1
12 | K39W | -0.507 ± 0.21
13 | K65T | -0.264 ± 0.18
14 | K65E | 0.073 ± 0.12
15 | K65V | -0.068 ± 0.1
16 | K65D | 0.084 ± 0.2
17 | K65C | -0.203 ± 0.24
18 | K65A | 0.014 ± 0.092
19 | K65H | -0.373 ± 0.25
20 | K65W | -0.502 ± 0.22
21 | E21D | -0.446 ± 0.24
22 | A30H | -0.34 ± 0.32
23 | A30W | -0.632 ± 0.16
24 | A30R | -0.666 ± 0.15

Row | Variant | abundance fitness
25 | L27Y | -0.079 ± 0.16
26 | L27V | -0.132 ± 0.13
27 | L27E | -0.538 ± 0.41
28 | S7L | -0.087 ± 0.09
29 | S7R | 0.121 ± 0.076
30 | S7D | 0.036 ± 0.25
31 | S7F | -0.108 ± 0.4
32 | S7T | -0.122 ± 0.12
33 | S7E | 0.017 ± 0.1
34 | S7H | -0.144 ± 0.16
35 | K2H | 0.115 ± 0.46
36 | K2M | -0.321 ± 0.16
37 | K2G | -0.696 ± 0.25
38 | K2C | -0.095 ± 0.16
39 | M4C | -0.627 ± 0.18
40 | M4Q | 0.043 ± 0.12
41 | M4R | -0.106 ± 0.077
42 | M4L | -0.017 ± 0.096
43 | M4W | -0.485 ± 0.11
44 | M4K | 0.057 ± 0.14
45 | M4Y | -0.091 ± 0.15
46 | M4E | -0.002 ± 0.11
47 | M4A | -0.072 ± 0.072
48 | E44H | -0.071 ± 0.12

Row | Variant | abundance fitness
49 | E44S | -0.05 ± 0.056
50 | E44Y | -0.317 ± 0.11
51 | E44R | -0.124 ± 0.046
52 | E44T | -0.135 ± 0.092
53 | E44C | -0.155 ± 0.069
54 | A53D | -0.498 ± 0.11
55 | A53V | -0.26 ± 0.058
56 | A53Q | -0.48 ± 0.13
57 | A53P | -0.377 ± 0.069
58 | A53E | -0.227 ± 0.08
59 | A53W | -0.79 ± 0.094
60 | A53S | -0.121 ± 0.068
61 | R66L | 0.012 ± 0.088
62 | R66T | 0.019 ± 0.12
63 | R66S | -0.063 ± 0.12
64 | R66F | 0.095 ± 0.17
65 | R66V | 0.097 ± 0.069
66 | K46D | -0.848 ± 0.16
67 | K46W | -1.17 ± 0.068
68 | K46T | -0.432 ± 0.11
69 | K46F | -1.21 ± 0.16
70 | K46S | -0.641 ± 0.066
71 | K46V | -0.431 ± 0.065
72 | K46C | -0.569 ± 0.099

Row | Variant | abundance fitness
73 | K46E | -1.08 ± 0.1
74 | K46G | -0.84 ± 0.073
75 | D56A | -0.049 ± 0.12
76 | D56T | -0.145 ± 0.11
77 | D56Q | -0.162 ± 0.15
78 | D56I | -0.306 ± 0.23
79 | D56V | -0.348 ± 0.085
80 | D56M | -0.231 ± 0.17
81 | D56C | -0.163 ± 0.083
82 | D56R | -0.128 ± 0.083
83 | T31M | -0.516 ± 0.18
84 | T31E | -0.142 ± 0.25
85 | T31F | -0.325 ± 0.44
86 | T31D | -0.11 ± 0.48
87 | T31G | -0.321 ± 0.14
88 | T31P | -0.599 ± 0.34
89 | T31Q | -0.359 ± 0.28
90 | K48F | -0.121 ± 0.072
91 | K48L | -0.081 ± 0.074
92 | K48Y | -0.078 ± 0.14
93 | K48P | -0.09 ± 0.1
94 | K48Q | -0.178 ± 0.087
95 | K48M | -0.115 ± 0.081
96 | K48S | -0.135 ± 0.072

Row | Variant | abundance fitness
97 | P16Y | -0.198 ± 0.18
98 | P16I | -0.224 ± 0.25
99 | P16K | -0.17 ± 0.14
100 | P16R | -0.08 ± 0.12
101 | P16W | -0.421 ± 0.17
102 | P16Q | -0.041 ± 0.16
103 | P16C | -0.357 ± 0.11
104 | P16T | -0.159 ± 0.25
105 | P16E | -0.087 ± 0.11
106 | Q12T | -0.54 ± 0.26
107 | D29N | -0.119 ± 0.13
108 | P3I | -0.305 ± 0.45
109 | P3C | -0.358 ± 0.28
110 | P3K | -0.368 ± 0.34
111 | P3W | -0.545 ± 0.29
112 | P3N | 0.031 ± 0.25
113 | P3T | 0.049 ± 0.2
114 | W38D | 0.097 ± 0.46
115 | W38G | -0.304 ± 0.19
116 | W38V | -0.504 ± 0.15
117 | W38F | -0.299 ± 0.17
118 | Q63D | 0.079 ± 0.15
119 | Q63H | -0.21 ± 0.16
120 | Q63P | -0.262 ± 0.098

Row | Variant | abundance fitness
121 | Q63I | -0.348 ± 0.17
122 | Q63C | -0.096 ± 0.11
123 | Q63K | 0.02 ± 0.11
124 | Q63S | -0.207 ± 0.1
125 | Q63E | -0.038 ± 0.14
126 | A8W | -0.347 ± 0.19
127 | A8G | -0.223 ± 0.13
128 | A8L | -0.288 ± 0.41
129 | A8R | -0.119 ± 0.093
130 | A8D | -0.162 ± 0.45
131 | E35K | -0.26 ± 0.28
132 | E35Q | -0.414 ± 0.47
133 | E35S | -0.189 ± 0.1
134 | E35A | -0.2 ± 0.13
135 | E35W | -0.774 ± 0.16
136 | E35P | -0.14 ± 0.31
137 | E35R | -0.142 ± 0.081
138 | E35I | -0.33 ± 0.33
139 | E35F | -0.251 ± 0.31
140 | E35C | -0.274 ± 0.098
141 | R15S | -0.41 ± 0.16
142 | R15W | -0.408 ± 0.12
143 | R15P | -0.541 ± 0.14
144 | R15A | -0.039 ± 0.13

Row | Variant | abundance fitness
145 | R15G | -0.559 ± 0.075
146 | R15Q | -0.336 ± 0.12
147 | R15H | -0.227 ± 0.15
148 | R15N | -0.769 ± 0.23
149 | T40L | -0.114 ± 0.073
150 | T40I | -0.165 ± 0.1
151 | T40Q | -0.094 ± 0.095
152 | T40M | -0.165 ± 0.15
153 | T40A | -0.294 ± 0.12
154 | T40G | -0.041 ± 0.075
155 | T40Y | -0.387 ± 0.18
156 | T40H | -0.087 ± 0.1
157 | E51I | -0.127 ± 0.067
158 | E51C | -0.215 ± 0.061
159 | E51L | -0.048 ± 0.052
160 | E51W | -0.286 ± 0.078
161 | E51V | -0.088 ± 0.058
162 | E51A | -0.088 ± 0.054
163 | E51K | -0.156 ± 0.076
164 | E51Y | -0.513 ± 0.11
165 | T54Y | -0.331 ± 0.12
166 | T54V | -0.12 ± 0.068
167 | T54P | -0.338 ± 0.079
